Source: patent US11160871B2, “SSTR-targeted conjugates and particles and formulations thereof” (TARVEDA THERAPEUTICS, INC., priority 2015, dated 2021)
Where “and” joins values, the source holds several entries; their conditions need not be identical. Identical values can stand only once. Like-named read-outs stand apart in the source and are kept apart here.

How the values were obtained:
[1] = tested on: NCI-H524 human small cell lung cancer cells; test: cells; format: cell-based; conditions: NCI-H524 proliferation
Description: Conjugates of the present invention were assessed in an in vitro assay evaluating inhibition of cell proliferation. NCI-H524 (ATCC) human small cell lung cancer cells were plated in 96 well, V-bottomed plates (Costar) at a concentration of 5,000 cells/well. 24 hours later, cells were treated with either conjugate for 2 hours and further incubated 70 hours, or for octreotide competition experiments, treated with 100 μM octreotide for 30 min, and then treated with conjugate for 2 hours, and further incubated for 70 hours. Conjugate starting dose was 20 μM and three fold serial dilutions were done for a total of ten points. After 2 hours of treatment, cells were spun down, the drug containing media was removed, and fresh complete medium was added and used to resuspend the cells, which were spun again. After removal of the wash media, the cells were resuspended in complete medium, and then transferred into white walled, flat bottomed 96 well plates. […] Proliferation was measured using CellTiter Glo reagent using the standard protocol (Promega) and a Glomax multi+ detection system (Promega). Percent proliferation inhibition was calculated using the following formula: % inhibition=(control−treatment)/control*100. Control is defined as vehicle alone. IC50 curves were generated using the nonlinear regression analysis (four parameter) with GraphPad Prism 6.

[2] = Membrane permeability in Caco-2 monolayers; format: in vitro ADME; conditions: human, Caco-2; Test Conc. 10 uM
Description: (§1) Membrane permeability of Conjugate 57 was measured in Caco-2 monolayers. The apparent permeability (Papp) was determined to be very low in both the apical to basolateral direction and the basolateral to apical direction.

Caco-2 monolayers = test: Membrane permeability in Caco-2 monolayers; format: in vitro ADME; conditions: Test Conc. 10 uM
Description: as §1

SSTR2 = SSTR2 (Homo sapiens, UniProt P30874); test: Radioligand-receptor binding assay, [125I] labeled somatostatin; set-up: host or cells: CHO-K1
Description: Two conjugates were assessed in an in vitro assay evaluating binding to the somatostatin receptor 2 (SSTR2). A radioligand-receptor binding assay was conducted at Eurofins Panlabs (Taiwan) to determine the affinity of conjugates described herein to the SSTR2. The assay measures binding of radiolabeled ligand, [^125I] labeled somatostatin, to human SSTR2 using membrane preparations from SSTR2 expressing CHO-K1 cells. Membranes were incubated with radiolabeled somatostatin (0.03 nM) in the presence of conjugate/compound starting at a dose of 10 uM using 6× serial dilutions to obtain a 10-pt curve. After a four hour incubation, membranes were filtered and washed 3× and counted to determine the remaining[^125 I] somatostatin bound to the receptor. IC50 values were determined by a non-linear, least squares regression analysis using MathIQ™ (ID Business Solutions Ltd., UK). The Ki values were calculated using the equation of Cheng and Prusoff (Cheng and Prusoff, Biochem. Pharmacol. 22:3099-3108, 1973) using the observed IC50 of the tested conjugate/compound, the concentration of radioligand employed in the assay, and the historical values for the KD of the ligand obtained at Eurofins.

NCI-H69 tumors = test: NCI-H69 tumor volume study, 2 doses; format: in vivo, mice
Description: In another study, 10 mice bearing NCI-H69 tumors were given 2 doses of Conjugate 57 at 2 mg/kg each. 9 mice bearing NCI-H69 tumors were given 2 doses of Conjugate 57 at 1.3 mg/kg each. All 10 animals dosed at 2 mg/kg had no detectable tumors at study end. Conjugate 57 More than half (5 out of 9) animals dosed at 1.3 mg/kg had no detectable tumors at study end.

Plasma protein binding = format: in vitro ADME; conditions: for fraction unbound at 1 uM: read-out: Free fraction at 1 uM (%); for fraction unbound at 10 uM: read-out: Free fraction at 10 uM (%)
Description: Plasma protein binding is not concentration dependent and is consistent across species.

NCI-H524 cells = test: PH3 assay of cell-cycle arrest; format: cell-based, human
Description: Results of a PH3 assay measuring effect on cell-cycle arrest that looks at phospho histone H3 (PH3) increases were shown in FIG. 2B.

H69 tumors = test: PD studies with H69 model, PH3 and CC3 by Western blot and IHC; format: in vivo
Description: PD studies were carried out with H69 model to determine the in vivo response of conjugate effects on tumor cells and timing/peak response. Conjugate 57 and Conjugate 57 in nanoparticles (Conjugate 57/NP20) were tested at 2 mg/kg. NP20 formulation has been described in EXAMPLE 2. Western blot and IHC staining were carried out to measure PH3 and CC3 levels.
PH3 is correlated chromosome condensation during both mitosis and meiosis. […] As shown in Western Blot results in FIG. 18A, the peak response for PH3 occurs at 48 hours for both the conjugate and the conjugate in the nanoparticle. […] PH3 level was steady for Conjugate 57/NP20 samples.
CC3 is a marker of apoptosis. It is the executioner of apoptosis and tightly regulated. A peak in activity is seen for both Conjugate 57 and Conjugate 57/NP20 at 72 hours (FIG. 19). The activity of Conjugate 57 is stronger as compared to Conjugate 57/NP20, consistent with the PH3 results.
Cell arrest as indicated by PH3 levels peaked at 48 hr and apoptosis as indicated by CC3 levels peaked at 72 hr.

[3] = Single dose exploratory toxicity study; format: in vivo, SD female rat
Description: Single dose exploratory toxicity studies in SD female rat (dose 0.5 mg/kg to 1.5 mg/kg) for 7-10 days were carried out. Clinical observations, body weight, clinical blood chemistry, histopathology, and complete blood counts were assessed. In the 10-day study, DM1 (0.4 mg/kg) was compared to Conjugate 57 at an equivalent dose of DM1 (1.0 mg/kg of conjugate) and at a 50% higher dose (1.5 mg/kg of conjugate).
Decreased white blood cell (WBC) count is a known dose limiting toxicity of DM1. WBC count was tracked in all groups.
Liver toxicity is also a know dose limiting toxicity of DM1. Alanine transaminase (ALT) and aspartate aminotransferase (AST) are markers of liver toxicity and were measured in all groups.

SSTR2, sequence (P30874 whole entry): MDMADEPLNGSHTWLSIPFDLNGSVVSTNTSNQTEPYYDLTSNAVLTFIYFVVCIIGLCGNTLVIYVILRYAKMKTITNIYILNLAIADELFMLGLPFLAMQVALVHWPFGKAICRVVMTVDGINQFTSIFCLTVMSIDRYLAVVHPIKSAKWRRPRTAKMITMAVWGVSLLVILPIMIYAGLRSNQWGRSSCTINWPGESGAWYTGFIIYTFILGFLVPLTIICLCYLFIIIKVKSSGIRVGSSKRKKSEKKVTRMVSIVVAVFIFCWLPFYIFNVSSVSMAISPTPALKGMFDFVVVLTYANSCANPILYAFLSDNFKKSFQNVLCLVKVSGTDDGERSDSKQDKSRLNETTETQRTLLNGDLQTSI

In the case of `COc1cc2cc(c1Cl)N(C)C(=O)C[C@H](OC(=O)[C@H](C)N(C)C(=O)CCSSC[C@H](NC(=O)[C@@H]1CSSC[C@H](NC(=O)[C@H](N)Cc3ccccc3)C(=O)N[C@@H](Cc3ccc(O)cc3)C(=O)N[C@H](Cc3c[nH]c4ccccc34)C(=O)N[C@@H](CCCCN)C(=O)N[C@@H]([C@@H](C)O)C(=O)N1)C(N)=O)[C@]1(C)O[C@H]1[C@H](C)[C@@H]1C[C@@](O)(NC(=O)O1)[C@H](OC)/C=C/C=C(\C)C2` [Conjugate 57], the “difference in IC50 with or without octreotide competition” value [1] is reported as 12.2 fold, the Papp A→B at 10 uM [2] is reported as 0.018 ×10⁻⁶ cm/s and the Papp B→A at 10 uM [2] is reported as 0.094 ×10⁻⁶ cm/s. The “Mean A→B Papp” value (Caco-2 monolayers) was “very low”, the “Mean B→A Papp” value (Caco-2 monolayers) was “very low” and the “SSTR affinity of Conjugate 57 relative to Conjugate 120” value (SSTR2) was 100,00 fold. The Ki (SSTR2; Conjugate 57 Ki (nM), SSTR2) was 0.018 nM and 0.0177 nM, the Ki (SSTR2; Ki (nm), SSTR affinity, Example 8) was 0.017 nM and the Ki (SSTR2; SSTR2 Ki (nM), membranes from SSTR2 expressing CHO-K1 cells) was 0.018 nM. For the same compound, the “animals with no detectable tumors at study end” value (NCI-H69 tumors; 2 doses at 1.3 mg/kg each, 9 mice) was 5 out of 9, the “animals with no detectable tumors at study end” value (NCI-H69 tumors; 2 doses at 2 mg/kg each, 10 mice) was 10 and the fraction unbound at 1 uM (Plasma protein binding; Dog plasma) was 0.044. For the same compound, the fraction unbound at 10 uM (Plasma protein binding; Dog plasma) was 0.033, the fraction unbound at 1 uM (Plasma protein binding; Human plasma) was 0.078 and the fraction unbound at 10 uM (Plasma protein binding; Human plasma) was 0.078. The fraction unbound at 1 uM (Plasma protein binding; Mouse plasma) was 0.082, the fraction unbound at 10 uM (Plasma protein binding; Mouse plasma) was 0.094 and the fraction unbound at 1 uM (Plasma protein binding; Rat plasma) was 0.063. The fraction unbound at 10 uM (Plasma protein binding; Rat plasma) was 0.074, the “shift in PH3 assay on competition with octreotide” value (NCI-H524 cells) was 2.6 fold and the “time of PH3 signal peak, IHC” value (H69 tumors; 2 mg/kg) was 48 h. The “time of peak in CC3 activity” value (H69 tumors; 2 mg/kg) was 72 h, the “time of peak response for PH3, Western Blot” value (H69 tumors; 2 mg/kg) was 48 h and the “time of peak of apoptosis as indicated by CC3 levels (fold change, FIG. 21)” value (H69 tumors; H69) was 72 h. For the same compound, the “time of peak of cell arrest as indicated by PH3 levels (fold change, FIG. 21)” value (H69 tumors; H69) was 48 h, the “AST and ALT” value ([3]; 1.0 mg/kg) was “no effects on AST and ALT” and the “Day 5 weight change (%)” value ([3]; 1.0 mg/kg) was −0.73%. For the same compound, the “Day 10 weight change (%)” value ([3]; 1.0 mg/kg) was “+1.8%”, the “complete blood count (CBC) and WBC count” value ([3]; 1.0 mg/kg and […]) was “no significant changes in complete blood count (CBC) and WBC count” and the tolerability ([3]; 1.0 and […] versus DM1 0.4 mg/kg, 10-day study) was “significantly improved tolerability versus DM1”.
